Patent US20220306729A1 (published 2022)

What was measured:
Human FcRn = assay: SPR
[1] = molecular target: ZIKV envelope domain III (ZEDIII), polyhistidine-AviTag, made in HEK-293-6E cells; assay: ELISA

B1: GRLR/LS (antibody)
heavy: EVQLLESGGGLVQPGGSLRLTCATSGFTFRDYAMSWVRQAPGKGLEWVSSYSGIDDSTYYADSVKGRFTISRDNSKSTLSLHMNSLRAEDSALYFCAKDRGPRGVGELFDSWGQGTLVTVSSASTKGPSVFPLAPSSKSTSGGTAALGCLVKDYFPEPVTVSWNSGALTSGVHTFPAVLQSSGLYSLSSVVTVPSSSLGTQTYICNVNHKPSNTKVDKRVEPKSCDKTHTCPPCPAPELLRGPSVFLFPPKPKDTLMISRTPEVTCVVVDVSHEDPEVKFNWYVDGVEVHNAKTKPREEQYNSTYRVVSVLTVLHQDWLNGKEYKCKVSNKARPAPIEKTISKAKGQPREPQVYTLPPSREEMTKNQVSLTCLVKGFYPSDIAVEWESNGQPENNYKTTPPVLDSDGSFFLYSKLTVDKSRWQQGNVFSCSVLHEALHSHYTQKSLSLSPG
light: DIQMTQSPSTLSASVGDRVTITCRASQSISKWLAWYQQKPGKAPKLLIYTTSTLKSGVPSRFSGSGSGTEFTLTISSLQPDDFATYYCQHFYSVPWTFGQGTKVEIKRTVAAPSVFIFPPSDEQLKSGTASVVCLLNNFYPREAKVQWKVDNALQSGNSQESVTEQDSKDSTYSLSSTLTLSKADYEKHKVYACEVTHQGLSSPVTKSFNRGEC
Question: With B1 as the binder, how does the Kd (Human FcRn) read?
Answer: 5.2 nM

B2: Z037 (antibody, V domains shown)
VH: QVQLQESGPGLVKPSETLSLTCSVSGYFISSGHYWGWIRQSPGKGLEWIASIYQSGSKFQTGNTYYNPSLESRVTISMDTSKNQFSLKLSSVTAADTAVYFCARDARSRSWDRTGFFGPWGQGILVTVSS
VL: EIVLTQSPGTLSLSPGERATLSCRASQSLSSSFLAWYQQKPGQSPRLLIYGTSSRDTGIPDRFSGSGSGTDFTLTISRLEPEDSAVYYCQQYGSSWGTFGQGTKLEIK
Question: Which EC50 [1] does the source give for B2 here?
Answer: > 0.4 µg/mL

B3: Z010 (MEX105_88) (antibody, V domains shown)
VH: EVQLLESGGGLVQPGGSLRLSCAASGFTFSNYAMAWVRQAPGKGLEWVSLIYSGDDSTYYADFVKGRFTISRHNSKNTLSLQMNSLRAEDTAIYYCVKDRGTGWSSIVHWGQGTLVTVSS
VL: DIQMTQSPSTLSASVGDRVTITCRASQTISNWLAWYQQKPGKAPKLLIYQASSLESGVPSRFSGSGSGTEFTLTISSLQPDDFATYYCQQYSTYWTFGQGTKVEIK
Question: Which EC50 [1] does the source give for B3 here?
Answer: > 0.4 µg/mL

B4: Z012 (antibody, V domains shown)
VH: QVQLVQSGAEVKKSGASVKVSCKASGYSFTTNYIHWVRQAPGQGPEWMGIINPRGGSTTYAQKFQGRVLMTSDTSTSTVYMELSSLRSEDRAVYYCARGKNHQTTVAVLSWYYGMDVWGQGTTVTVSS
VL: DIQMTQSPSSVSASVGDRVTITCRASQGISSWLAWYQQKPGKAPKLLISAASSLQSGVPSRFSGSGSGTDFTLTISNLQPEDFATYFCQQANSFPYTFGQGTKLEIK
Question: B4 was tested. Which EC50 [1] did it give?
Answer: 0.2 µg/mL
